This is an account of results in the nanobody polyreactivity screen of Harvey et al. (2022).

The nature of the data set: yeast display, Sf9 membrane polyspecificity reagent, FACS + sequencing; frameworks hold sequencing errors. In a few lines: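 Polyreactivity labels are assigned by the sorting gate from which each nanobody was recovered. The gates were low and high (top ~1%), set on anti-HA fluorescence for expression and streptavidin fluorescence for reagent binding. Before sorting, galactose-induced (36–48 hours) yeast display cells were stained for 1 hour at 4 °C with 10% biotinylated, detergent-solubilized Sf9 membrane reagent.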
Regarding “QVQLVESGGGLVQAGGSLRLSCAASGFIFSRYGMGWYRQAPGKERELVAAISRSGGSTYYADSVKGRFTISRDNAKNTVYLQMNSLKPEDTAVYYCATAYSWRNADWFAYSYDYWGQGTQVTVSS”, the “polyreactivity (PSR sort gate)” value was “low polyreactivity”.

Turning to “QVQLVESGGGLVQAGGSLRLSCAASGFIFSRYVMGWYRQAPGKERELVAAISRGGSTYYADSVKGRFTISRDNAKNTVYLQMNSLKPEDTAVYYCAVRSTRFLIYYPPYDYWGQGTQVTVSS”, the “polyreactivity (PSR sort gate)” value is recorded as “high polyreactivity”.

As to “QVQLVESGGGLVQAGGSLRLSCAASGFIFSSNAMGGYRQAPGTERELVATIDRDGGITYADSVKGRFTISRDNAKTTVYIQMNSLKPEDTEVYYCAADPSSYGRFTYDYWGQGTQVTVSS”, the “polyreactivity (PSR sort gate)” value is listed as “low polyreactivity”. As for “QVQLVESGGGLVQAGGSLRLSCAASGFIFSSYAKGWYRQAPGKERELVAVITRSGRRTYYADSVKGRFTISRDNAKNTFYLQMNSLKPEDTAVYYCNATLPNEVAPNDYWGQGTQVTVSS”, the “polyreactivity (PSR sort gate)” value is recorded as “high polyreactivity”.

Consider “QVQLVESGGGLVQAGGSLRLSCAASGFIFSSYAKGWYRQAPGKETELVAAITSGGSTNYADSVKGRFTISRDNAKNTVYLQMNSLYPEDTAVYYCATVPGGSWFFHWWSTGGDDEYWGQGTQVTVSS”, for which the “polyreactivity (PSR sort gate)” value is given as “low polyreactivity”. The same measure for “QVQLVESGGGLVQAGGSLRLSCAASGFIFSSYAMGWYRQAPGKERELVAAISRSGGRTNYADSVKGRFTISRDNAKNTVYLQMNSLKPDDTAVYYCNARGRGKYPPYGYDYWGQGTQVTVSS”: “high polyreactivity”. The same measure for “QVQLVESGGGLVQAGGSLRLSCAASGFIFSSYAMGWYRQAPGKERELVAAITSGGSTNYADSVKGRFTISRDNAKNTVYLQMNSLKPEDTAVYYCATVPGRSWFFHWWSTGGDDEYWGQGTQVTVSS”: “low polyreactivity”; for “QVQLVESGGGLVQAGGSLRLSCAASGFIFSTNAMGWYRQAPGKERELVAAISRRGGNTYYADSVKGRFTISRDNAKNTVYLQMNSLKPEDTAVDYCNAVFRSGGLDYWGQGTQVTVSS”: “high polyreactivity”. The same measure for “QVQLVESGGGLVQAGGSLRLSCAASGFIFSTNAMGWYRQAPGKERELVAAISRRGGNTYYADSVKGRFTISRDNAKNTVYLQMNSLKPEDTAVYYCNAVFRSGGLDYWGQGTQVTVSS”: “high polyreactivity”; for “QVQLVESGGGLVQAGGSLRLSCAASGFIFSTYVMGWYRQAPGKERELVAAISASGGRTYYADSVKGRFTISRDTAKNTVYLQMNSLKPEDTAVFYCAAEITDTYRWALNYWGQGTQVTVSS”: “high polyreactivity”. For “QVQLVESGGGLVQAGGSLRLSCAASGFIFSWNAMGWYRQAPGKERELVAAITNRGGSTYYADSVKGRFTISRDNAKNTVYLQMNSLKPEDTAVYYCAKRSSRWGRTPYDYWGQGTQVTVSS”, the “polyreactivity (PSR sort gate)” value was “high polyreactivity”. The same measure for “QVQLVESGGGLVQAGGSLRLSCAASGFIFSYLYAMGWYRQAPGKERELVAAITYNGGSTYYADSVKGRFTISRDIAKNTVYLQMNSLKPEDTAVYYCAARKRYRANSYWEMAYWGQGTQVTVSS”: “high polyreactivity”; for “QVQLVESGGGLVQAGGSLRLSCAASGFIFSYNAMGWYRQAPGKERELVAAISSRGGSTYYADSVKGRFTISRDNAKNTVYLQTKSLKPEDTAVYYCAVASRRVYTAPYDYWGQGTQVTVSS”: “high polyreactivity”; for “QVQLVESGGGLVQAGGSLRLSCAASGFIFSYNAMGWYRQAPGKERELVAAISSRGGSTYYADSVMGRFTISRDNAKNTVYLQMNSLKPEDTAVSYCAVASRRVYTAPSDYWGQGTQVTVSS”: “high polyreactivity”. The same measure for “QVQLVESGGGLVQAGGSLRLSCAASGFIFSYYAMGWYIQEPGKERELVAAITVTGGNTYYADSVKGRFTISRDNAKNTVYLQMNSLIPEDTAVYYCAAVVRGPGVSVYYWGLGTQVTVSS”: “low polyreactivity”; for “QVQLVESGGGLVQAGGSLRLSCAASGFIFSYYAMGWYRQAPGKERELVAAISGRGGSTYYADSVKGRFTISRDNEKNTVYLQMNSLKPEDTAVYYCAATTLRFYRHGDYWGQGTQVTVSS”: “low polyreactivity”.

Regarding “QVQLVESGGGLVQAGGSLRLSCAASGFIFSYYAMGWYRQAPGKERELVAAITSNGGSTYYADSVKGRFTISRDNAKNTVYLQMNSLKPEDTAVYYCNVKYRYWNQGYGSWGQGTQVTVSS”, the “polyreactivity (PSR sort gate)” value is reported as “high polyreactivity”. For the sequence “QVQLVESGGGLVQAGGSLRLSCAASGFIFSYYTMGWYRQAPGKERELVAAITSGGSTNYADSVKGRFTISRDNAKNTVYLQMNSLKPEDTAVYYCNALLWAWTLWGSGYDYWGQGTQVTVSS”, the “polyreactivity (PSR sort gate)” value was “low polyreactivity”. Next, “QVQLVESGGGLVQAGGSLRLSCAASGFIFTANAMGWYRQAPGKESELVANINRSGDSTYYADSVKGRFTISRDNAKNTVYLQMNSLKPEDTAVYYCNKDWHSQVFSAYNSYDYWGQGTQVTVSS”: “low polyreactivity”; “QVQLVESGGGLVQAGGSLRLSCAASGFIFTDNVMGWYRQAPGKERELVAAISRRGGSTYYADSVKGRFTISRDNAKNTVYLQMNSLKPEDTAVYYCNVARQSYLLDYWGQGTQVTVSS”: “high polyreactivity”; “QVQLVESGGGLVQAGGSLRLSCAASGFIFTDYAMGWYRQAPGKERELVATISWSGSSTYYADSVKGRFTISRDNEKNTVYLQMNILKPEDTGVYYCAAEFWYTYPYLVDYWRQGTQVTVSS”: “low polyreactivity”. With “QVQLVESGGGLVQAGGSLRLSCAASGFIFTFYAMGWYRQEPGKEREFVASIDWGDGSTYYADSVKGRFTISRDNAKNTVYLQMNSLKPEDTAVYYCAHDYDGYVWDTEYDYWGQGTQVTVSS”, the “polyreactivity (PSR sort gate)” value is on record as “low polyreactivity”. The same measure for “QVQLVESGGGLVQAGGSLRLSCAASGFIFTGNAMGWYRQAPGKERELVAAITGRGSTYYADSVKGRFTISRDNAKNTVYLQMNSLKPEDTAVYYCAAKRWWQYYWGQGTQVTVSS”: “high polyreactivity”; for “QVQLVESGGGLVQAGGSLRLSCAASGFIFTGNVMGWYRQAPGKERELVAAIRWSGGRTYYADSVKGRFTISRDNAKNTVYLQMNSLKPEDTAVYYCNALGRVQGYKPGGLDYWGQGTQVTVSS”: “high polyreactivity”. As for “QVQLVESGGGLVQAGGSLRLSCAASGFIFTGYTMGWYRQAPGKERELVARISSGDSTKYADSVKGRFTISRDNAKNTVYLQMNSLKPEDTAVYYCAATTGYTARWRNRYIYYYWGQGTQVTVSS”, the “polyreactivity (PSR sort gate)” value was “high polyreactivity”. The same measure for “QVQLVESGGGLVQAGGSLRLSCAASGFIFTKYTMGWYRQAPGKERELVADITGRGTSTYADSVKGRFTISRDNAKNTVYLQMNSLKPEDTAVYYCAAVGWFADFLFSDINGYYWGQGTQVTVSS”: “low polyreactivity”; for “QVQLVESGGGLVQAGGSLRLSCAASGFIFTNVMGWYRQAPGKERELVASISSGGRTYYADSVKGRFTISRDNAKNTVYLQLNSLKPEDTAVYYCAKKKLLSVPARGYDYVYYWGQGTQVTVSS”: “high polyreactivity”. In the case of “QVQLVESGGGLVQAGGSLRLSCAASGFIFTRNVMGWYRQAPGKERELVAGITYTSGSTYYADSVKGRFTISRDNAKNTVYLQMNSLKPEDTAVYYCAAEITRHYVFGDDYWGQGTQVTVSS”, the “polyreactivity (PSR sort gate)” value is given as “low polyreactivity”.

Turning to “QVQLVESGGGLVQAGGSLRLSCAASGFIFTRYAMGWYRQAPGKERELVAAISASGGSTYYADSVKGRFTISRDNAKNTVYLQMKSLKPEETAVYYCAAVPYRYTYDYWGQGTQLTVSS”, the “polyreactivity (PSR sort gate)” value is reported as “high polyreactivity”. The same measure for “QVQLVESGGGLVQAGGSLRLSCAASGFIFTSYAMGWYRQAPGKERELVAAITDGGSTNYADSVKGRFTISRDNAKNTVYLQMNSLKPEDTAVYYCAADGFKTVLPEYDYWGQGTQVTVSS”: “low polyreactivity”.
